Reference: US6303653

Tested on: HNF-4alpha (transfected expression vector)
Assay: cell_activity
Conditions: COS-7 cotransfection, no added fatty acids

Which activity (fold activation) does the source give for “one to three C3P copies enhancing TK promoter CAT reporter” here?
Its activity (fold activation) is 7.
